In the test the target is T1, HLA-DR13 (DRB1*1301) (human).
T1 chain 1: not shown
T1 chain 2: not shown
Put plainly: competition ELISA, nonbiotinylated reference peptide against its biotinylated tracer. (In general: ELISA stands for enzyme-linked immunosorbent assay.)

Where no end group is shown, it is not given here.

The term IC50 denotes the concentration that gives 50% inhibition. Higher therefore signals lower potency. As to TERVRLVTRHIYNREE (not fully specified) [B1 21-36 (nonbiotinylated reference peptide)], the IC50 stood at 39 nM.

The values are drawn from patent US20110159022A1, “Immunogenic Peptides Derived from the Midkine Protein, as an Anticancer Vaccine” (priority 2008, published 2011).
